In publication PMC10442425:

Molecular target: recombinant SARS-CoV-2 envelope (E) protein, His-tagged (SARS-CoV-2) (UniProt P0DTC4)
Test: SPR; Biacore 8K, 25 °C, PBS-P buffer; His-tagged E protein captured on NTA chip; recombinant human CD36 injected at 400 nM to 12.5 nM, parallel kinetics; 1:1 binding model

Substance: recombinant human CD36 protein (from UniProt P16671 1-472) (receptor)
- Kd: 55 nM
